Reference: the nanobody polyreactivity screen of Harvey et al. (2022)

Assay: yeast display, Sf9 membrane polyspecificity reagent, FACS + sequencing; frameworks hold sequencing errors
Method in brief: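 After 36–48 hours of galactose induction, yeast (Saccharomyces cerevisiae BJ5465) displaying a synthetic nanobody library were stained at 4 °C for 1 hour with 10% biotinylated, detergent-solubilized Sf9 membrane reagent. Streptavidin microbeads enriched the stained cells before FACS sorting into low and high (top ~1%) gates on anti-HA and streptavidin fluorescence. Each clone's polyreactivity label reflects its gate of origin.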

Sequence	polyreactivity (PSR sort gate)
QVQLVESGGGLVQAGGSLRLSSAASGFIIVFYAMGWYRQAPGKERELVAAITWSGGGTYYADSVKGRCTISRDNAKNTVYLQMNSLKPEDTAVYYCNAEEPQYYYVLDKLYDFWGQGTQVTVSS	low polyreactivity
QVQLVESVGGLVQAGGSLRLSCAGSGFTCGAYAMGWSRQAPRKERELVAAINTRGGSRYYADSVKGRFTISRDNAKNTVYLQMNSLKPEDTAVYYCAASVYFWYDYWGQGTQVTVSS	high polyreactivity
QVQLVESGGGLVQAGGSLRLSCAASGRTLHDYTMGWYRQEPGKERELVAGITSGGRTNYADSVKGRFTISRYNAKNTVYLQMNSLKPEDTAVYYCAAAWTWWRLYADDYWGQGTQVTVSS	high polyreactivity
QVQLVESGGGLVQAGGSLRLSCAASGRIFYLYAMGWYRQAPGKERELVAAITWSGGSTYYADSVKGRFTISRDNAKNTVYLQMNSLKPEDTAVYYCARDDAYSDFDYDYWGQGTQVTVSS	low polyreactivity
QVQLVESGGGLVQAGGSLRLSCAASGFTFWYYAMGWYRQAPGKERELVAAITYNGDRTYYADSVKGRFTISRDNAKNTVYLQMNSLKPEDTAVYYCAAAFVSVRKRYGYWGQGTQVTVSS	high polyreactivity
QVQLVESGGGLVQAGGSLGLSCAASGSTFAEYAMGWYRQAPGKERELVAVISFGDGNTYYADSVKGRVTISRDNAKNTVYLQMNSLKPEDTAVYYCNAADDSVDQSVRTLRQYEYWGQGTQVTVSS	low polyreactivity
QVQLVESGGGLVQAGGSLRLSCAASGRTFSANAMGWYRQAPGKERELVAAISSGGSTTYADSVKGRFTISRDNAKNTVYLQMNSLKPEDTAVYYCAAVWLSLFKGWVDTHEYDYWGQGTQVTVSS	low polyreactivity
QVQLQESGGGLVQAGGSLRLSCAASGTIFWLWAMGWYCKAPGKERELVASISSGGTTYHADSVKGRFTISRDNAKNTVYLQMNSLKPEDTAVYYSAAFYVATAKLGYWGQGSQVTVSS	low polyreactivity
QVQLVESGGGLVQAGGSLRLSCAASGFIFDYYAMGWYRQAPGKERELVAAITRDGGGTYYADSVKGRFTISRDNAKNTVYFQMNSLKPEDTAVYYCAARTAYYHGSKYYYRGQGTQVTVSS	high polyreactivity
QVQLVESGGGLVQAGGSLRLSCAASGFTLKYNTMGWYRPAPGKERELVAAISRIGGRTYYADSVKGRFTISRDYAKNTVYLHKNSLKPEDTAVYYCAAVYRVCWRTYGYWGQGTQVTVSS	high polyreactivity
QVQLVESGGGLVQAGGSLRLSCAASGFIFGYYAMGWYRQAPAKERELVAAINWSGGSTYYADSVKGRFTISRDNAKNTVYLQMNSLKPEDTAVYYCAARYPYRRGGQDSYYYWGQGTQVTVSS	high polyreactivity
QVQLVESGGGLVQAGGSLRLSCAASGSIFLSNAMGWSRQAPGKERELVADIDWTGGDTYYADSVKGRFTISRDNAKNTVYLQMNSLKPEDTAVYYCAADYGYRNLLTEYGYWGQGTQVTVSS	low polyreactivity
QVQLVESGGGIVQAGGSLRLSCAASGNTFGYYAMGWYRPAPGKERELVASISYSGGSTYADSVKGRFTISRDNAKNTVYLQMNSLKPEDTAVYYCAADYWIYAADSWVLYDSWGQGTQVTVSS	low polyreactivity
QVQLVESGGGIVQAGGSLRLSCAASGSIFARYAMGWSRPAPGKERELVAAISGRGGSTYYADSVKGRFTISRDHATNTDYLQMNSLKPEDTAVYYWNAVWDDYGFYSPYVVVEYDYWGQGTQVTVSS	high polyreactivity
QVQLVESGGGLVQEGGSLRLRCAASGGIFASNAMRWYRQAPGKERELLATITRGGSTNYADSVKGRFTISRDNAKNTVYLQMNSLKPEDTAVYYCAARFYSRAFWPAYYYWGQGTQVTVSS	high polyreactivity
QVQLVESGGGLVQAGGSLRLSCAASGRIFPVYAMGWYRQAPGKEREFVAAIRGTGTSTYYADSVKGRFTISRDNAKNTVYLQMNSLKPEDTAVYYCAASAGYAYNYWGQGTQVTVSS	low polyreactivity
QVQLVESGGGLVQAGGSLRLSCAASGSTLVTNAMGWYRQAPGKERELVAAITFSGGTTYYADSVTGRFTISRDNAKNTVYVQMNSLKPEDTAVYYCAAEIWLEYVGYDYWGQGTQVTVSS	high polyreactivity
QVQLVESGGGLVHAGGRLRLSCAASGRISGYAMAWYRQAPRTERELVAAISTRGGTTYYADSVKGRFTISRDNAKNTVYLQMNSLKPEDTAVYFCNAASSRWPEYDFWGQGTQVTVSS	high polyreactivity
QVQLVESAGGLVQAGGSLSLSCAASGTFYLYARGWYRQAPGKQRELVAAISGSGSTNYADSVKGRFTISRDNAKNTVYLQMNSLKPEDTAVYYCAAYQRYDSVTGARYEYDYWGQGTQVTVSS	low polyreactivity
QVQLVESGGALVQAGGSLRLSCAASGSTFYSYAMGWYRQAPGKERELVAVISTGDTTDYADSVKGRFTISRDNAKNTVNLQMNSLKPEDTAVYYCNAPSYWYYPVLGSFLTFDYWGQGTQVTVSS	low polyreactivity
QVQLVESGGGLVQAGVSLRLSCAGSGSIFRSYTMGWYRQAPGKERELVAAISYSGGRTYYADSVMGRFTISRDNAKNTVYLQLNSLKPEDTAVYYCARRYYVTGCVGYDYWGQGTQVTVSS	high polyreactivity
QVQLVESGGGLVQAGGSLRLSSPASGSIFITYAMGWYRQAPGKESELVAAIRDSGDRTYYADSVKGRFTISRDNAKKTVYFQMNSLKPEDTAVYYCNARWQEPLKYDYWGQGTQVTVSS	low polyreactivity

Sequence	polyreactivity (PSR sort gate)
QVQLVESGGGLVQAGGSLRLSCAASGRTFYFYAMGWYRQAPGKERELVAAITSRVGRTYYADSVKGRFTISRDTAKNTVYLQMNSLKPEDTAVYDCAAEGVYRMGYWGQGTQVTVSS	high polyreactivity
QVQLVESGGGIVQAGGSLRISSSASGRIITAYAMGWYRQAPGKERELVAAITRSTTYYADSVKGRFTISRDNAKFSVDLQLHSLKPDDTAVFYCAADYRGTWYGYDYWGQGTHVTVSS	high polyreactivity
QVQLVESGGGLVQAGGSLRLSCAASGSTFEYNAMGWYRQAPGKERELVASSTNYADSVKGRFTISRDNAKNTVYLQMNSLKPEVTAVYYCAAYQDYVYSESLFSVSARMYYWGQGTQVTVSS	low polyreactivity
QVQLVESGGGLVQAGVRLRLSCAASGITFYINAMGGYRQAPGKERELVAVIDSRGSSTFYADSVKGRFTISRDTAKNTVYLQMNSLKPEDTAVYYCAAEAPSWYDRQYDYCGQGTQVTVSS	low polyreactivity
QVQLVESGGGLVQAGGSLRLSCAASGLTFIGNAMGWYRQAPGKERELVAAITWSGTSTYYADSVKGRFTISRDNAKNTVYLQMNSLKPEDTAVYYCAAVLRRLGVSYYYWGQGTQVTVSS	high polyreactivity
QVQLVESGGGLVQAGGSLRLSFAGSGYIFTSYAMRWYRQAPGKERQLVARINYSGGGTSYADSVKGRFTISRDNAKHTVYLQMNSLKQEDTAVYYCAARSYWFRPTKYNYWGQGTQVTVSS	high polyreactivity
QVQLVESGGGLVQAGGSLRLSCAASGSTIEPYAMGWYRQAPGKERELLAAITLSAGSTYYADSVKGRFTISRDYAKNTVYLQMNSLNPEDTAVYYCNADYGYNNQLLWGYYGWSSDHWGQGTQVTVSS	low polyreactivity
QVQLVESGGGLVQAGVSLRLSCAASGFTFSRYGMGWYRQTPGKERELVAAITWSGGNTNYADSVKGRFTISRDNAKNTVYLQMNSLKPEDTAVYYCNAPRGYWSQSHFDYWGQGTQVNVSS	high polyreactivity
QVQLVESGGGLVQAGGSLRLSCAASGSTFVYYAMGWYRQAPGKETEFVAAISISSGSTYYADSVKGRFTISRDNAKNTVYLQMNSLKPEDTAVYYCAVDWFLGGYDDLDYWGQGTQVTVSS	low polyreactivity
QVQLVESGGGLVQAGGSLRLTCAASGFTFAYKTMGWYRQAPGKERELVAAISWSGGRTYYADSVKGRFTISRDNAKNTVYLQMNSLKPEHTAVYYCAAEFWNQYGAYDYWGQGTQVTLSS	low polyreactivity
QVQLVESGGGLVQAGGSLRLSCAATGLTIWHYVMGWYRQAPGKERELVATISSSGGSTFYADSVKGRFTISRDNAKNTVYLQMNSLKPEDTAVYYCNADQYSWRWRRKHDYWGQGTQVTVSS	high polyreactivity
QVQLVESGGGLVQAGGSLRLSCAASGSTFHYYAMGWYRQAPGKERELVAAITRGGNTYYADSVKGRFTISRGNAKNTVYLQMNSLKPEDTAVYYCAKDNLFEAYRYDYWGQGTQVTVSS	low polyreactivity
QVQLVESGVGLVQAGGSLRLSCAASGRTFPPYAMGWYRQAPGKERELVAAISSDGSTYADSVKGRFTISRDNAKNTVYLQMNSLKPEDTAVYYCAVDYTYSYRKHFGHILYSWGQGTQVTVSS	low polyreactivity
QVQLVESGGGLVQAGGSLRLSCAASGLTFDRYVMGWYRQAPGKERELVAGISTGGSSTYYADSVKGRFTISRDNAKNTVYLQMNSLKPEDTAVYYCAAKLSYWSRHNYWGQGTQVTVSS	high polyreactivity
QVQLVESGGGLVQAGGSLRLSCAASGLIFNIYAMGWYRQAPGKARELVATIRYSGGSTNYADSVKGRFTISRDNAKNTVYLQMNSLKPEVTAVYYCNAGYYPTGYDYWGQGTQVTVSW	low polyreactivity
QVQLVESGRGLVQAGGSLRISCAASGITFVFYAMGWYRQAPGKEIELVAAMSWSGGITYYADSVKGRFTISRDNSKNSVYLQMNSLKPEDTAVYYCAATKRQTKYYGGTTDSIRYYWGQGTQVTVSS	low polyreactivity
QVQLVESGGGLVQAGGSLRLSCAASGFIFVWYAMGWYRQAPGKERELVAGITASGGSTYYADSVKGRFTISRDNAKNTVYLQMNSLKPEDTAVYYCAADAWPLWLKLTPTSGGYWGQGTQVTVSS	low polyreactivity
QVQLVESGGGLVQAGGSLRLSCAASGRIFSIYGMGWSRQAPGKEREFVASITYSGGSTYYADSVKGRFTISRDNAKNTVYLQMNSLQPEDTAVYYCAKYVFSAYDYWGQGTLVTVSS	low polyreactivity
QVQLEESGGGLVQAGGSLRLSCAASGLTLGRYAMGWYRPAPGKERELVAVITGGGSTNYADSVKGRFTISRDNAKNTVYLQMNSLKPEDTAVYYCAVRGGIFQTLSTWYRYYYWGQGTQVTVSS	high polyreactivity
QVQLHESGGGLVQSGGSLRLICAASGSISHYIFMGWYRQAPGKEREFVAGIGYGGTTNNADSVKGRFTISRDNAKNTVYLQMNSLKPEDTAMYYCAAREATEFYLDYWGQGTQVTVSS	low polyreactivity
QVQLVESGGGLVQAGGSLRLSSAASGSTFFSYAMGWYRQAPGKERELVAAITRSGGSTYYADSVKGRFTISRDNAKNNVYLHMNSLTPEDTSVYYCAVLSALWRVFTERGYWGQGTQVTVSS	high polyreactivity
